Reference: patent US20180002437A1 (ABRUZZO THERANOSTIC S R L, published 2018)

Tests used:
[1] = target: T1, human Trop-2 on the cell surface (native, endogenous or transfected) (human, UniProt P09758 27-323); assay: cell-based or functional assay
T1 sequence: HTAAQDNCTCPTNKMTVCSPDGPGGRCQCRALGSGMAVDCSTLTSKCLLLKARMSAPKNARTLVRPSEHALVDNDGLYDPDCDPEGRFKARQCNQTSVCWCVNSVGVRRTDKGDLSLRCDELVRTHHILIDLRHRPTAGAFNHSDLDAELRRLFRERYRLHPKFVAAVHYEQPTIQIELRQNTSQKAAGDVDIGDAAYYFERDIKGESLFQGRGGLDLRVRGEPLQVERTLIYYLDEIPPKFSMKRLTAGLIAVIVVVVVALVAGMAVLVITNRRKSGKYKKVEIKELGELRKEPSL

[2] = target: T1, human Trop-2 on the cell surface …; assay: flow cytometry competition on Colo205 cells, competitor of 2EF-488 at 9x and 27x
Procedure: (§1) The relative affinity of Hu2EF-4 e Hu2EF-5 for the native Trop-2 antigen was also analysed by means of […] competitive binding measured by flow cytometry on live tumor cells that express surface Trop-2. […] After 20 min at 4° C. cells were washed with 5 ml of SM and resuspended in 500 μl di SM with 0.5 μg/ml propidioiodide to discriminate dead cells). Fluorescence was then analysed by flow cytometry (FACScalibur, FACScan, Becton Dickinson, Sunnyvale, Calif.) as previously described (Alberti, Nutini et al. 1994) (FIG. 31). […] Simila results were obtained for the Hu2EF-4 antibody.

[3] = target: T1, human Trop-2 on the cell surface …; assay: flow cytometry competition on Colo205 cells, competitor of 2EF-488
Procedure: as §1

[4] = target: T1, human Trop-2 on the cell surface …; assay: flow cytometry competition with 2G10-488 on MTE 4-14/Trop-2 and MCF7 cells (sentence also sums up the competitive ELISA)
From the text: The binding to Trop-2 of the purified Ch2G10, Hu2G10-5 and Hu2G10-6 antibodies was also characterized by flow cytometry using alive cells that express native surface Trop-2 (either ndogenous or transfected). […] The cells were then washed and analyzed by flow cytometry as described.

[5] = target: T1, human Trop-2 on the cell surface …; assay: flow cytometry competition on Colo205 cells (FIG. 31 and FIG. 37)
Procedure: FIG. 37: Relative affinity of the 2EF and Hu2EF-7 antibodies for native Trop-2—Flow citometry analysis. Human colon cancer COLO205 cells, which are positive for Trop-2, were incubated with FITC-labelled 2EF antibody pre-mixed with increasing concentrations of unlabelled Hu2EF-7 purified from CHO-K1 or YB2/0 cells.
as §1

[6] = target: T1, human Trop-2 on the cell surface …; assay: flow cytometry, MCF-7 cells, goat anti-human Alexa-488
Procedure: FIG. 38: Specific recognition of Trop-2 by the humanized monoclonal antibodies according to the present invention - analysis by flow cytometry. (A) human metastatic colon cancer KM12SM cells transfected with a vector expressing Trop-2 (left panel) or with the empty vector (right panel) were incubated with the ‘humanized anti-Trop-2 monoclonal antibody Hu2EF-7. […] Unstained negative controls (thin line) are shown for comparison. (B) Human colon cancer HT29 cells (left panel) or breast cancer MCF-7 cells (right panel) expressing Trop-2 were incubated with the humanized Hu-2EF-7 and Hu-2G10-6anti-Trop-2monoclonal antibodies respectively.

B1: humanized Hu2EF-7 antibody (Hu2EF VH7 and VL2, IgG1/kappa) (antibody, V domains shown)
VH: QVQLVQSGAEVKKPGASVKVSCKASGYTFTNYWIGWVKQAPGQGLEWIGDIYPGGGYTNYNEKFKGRATLTADTSASTAYMELSSLRSEDTAVYYCARGTGGGDYWGQGTLVTVSS
VL: DIVLTQSPDSLAVSLGERATINCRASQSVSTSSYSYMHWYQQKPGQPPKLLIKYASNLESGVPDRFSGSGSGTDFTLTISSLQAEDVAVYYCQHSWEIPYTFGGGTKLEIKR
[1]
  EC50 of ADCC reporter bioassay (luciferase luminescence; Jurkat effector cells with V158 FcgammaRIIIa and NFAT-luciferase; MCF7 target cells): 0.052 µg/mL

B2: humanized Hu2EF-5 antibody (VH5-Hu2EF and VL1-Hu2EF, IgG1/kappa) (antibody, V domains shown)
VH: QVQLVQSGAEVKKPGASVKVSCKASGYTFTNYWIGWVRQAPGQGLEWIGDIYPGGGYTNYNEKFKGRATLTADTSTSTAYMELSSLRSEDTAVYYCARGTGGGDYWGQGTLVTVSS
VL: DIVMTQSPDSLAVSLGERATINCRASQSVSTSSYSYMHWYQQKPGQPPKLLIKYASNLESGVPDRFSGSGSGTDFTLTISSLQAEDVAVYYCQHSWEIPYTFGQGTKLEIK
notes: human IgG1/kappa constant regions
[2]
  binding result: binds

B3: humanized Hu2EF-4 antibody (VH4-Hu2EF and VL1-Hu2EF, IgG1/kappa) (antibody, V domains shown)
VH: QVQLVQSGAEVKKPGASVKVSCKASGYTFTNYWIGWVRQAPGQGLEWIGDIYPGGGYTNYNEKFKGRATLTADTSASTAYMELSSLRSEDTAVYYCARGTGGGDYWGQGTLVTVSS
VL: DIVMTQSPDSLAVSLGERATINCRASQSVSTSSYSYMHWYQQKPGQPPKLLIKYASNLESGVPDRFSGSGSGTDFTLTISSLQAEDVAVYYCQHSWEIPYTFGQGTKLEIK
notes: as for B2
[3]
  binding result: binds

B4: chimeric 2G10 IgG1/kappa antibody (Ch2G10) (antibody, V domains shown)
VH: QGQMQQSGAELVKPGASVKLSCKTSGFTFSSSYISWLKQKPRQSLEWIAWIYAGTGGTSYNQKFTGKAQLTVDTSSSTAYMQLSSLTSEDSAIYYCARHNPRYYAMDYWGQGTSVTVSS
VL: ETTVTQSPASLSMAIGEKVTIRCITSTDIDDDMNWYQQKPGEPPKLLISEGNTLRPGVPSRFSSSGYGTDFVFTIENMLSEDVADYYCLQSDNLPYTFGGGTKLEIKR
notes: also called Ch2G10-IgG1/k
[4]
  binding result: binds

B5: mouse 2G10 antibody (hybridoma PD 08020) (antibody, V domains shown)
VH: QGQMQQSGAELVKPGASVKLSCKTSGFTFSSSYISWLKQKPRQSLEWIAWIYAGTGGTSYNQKFTGKAQLTVDTSSSTAYMQLSSLTSEDSAIYYCARHNPRYYAMDYWGQGTSVTVSS
VL: ETTVTQSPASLSMAIGEKVTIRCITSTDIDDDMNWYQQKPGEPPKLLISEGNTLRPGVPSRFSSSGYGTDFVFTIENMLSEDVADYYCLQSDNLPYTFGGGTKLEIK
notes: Mouse monoclonal from the hybridoma; also called murine 2G10
[4]
  binding result: binds

B6: mouse 2EF antibody (hybridoma PD 08021) (antibody, V domains shown)
VH: QVQLQQSGAELVRPGTSVKMSCKAAGYTFTNYWIGWVKQRPGHGLEWIGDIYPGGGYTNYNEKFKGKATLTADTSSSTAYMQLSSLTSEDSAIYYCARGTGGGDYWGQGTLVTVSA
VL: DIVLTQSPASLAVSLGQRATISCRASQSVSTSSYSYMHWYQQKPGQPPKLLIKYASNLESGVPARFSGSGSGTDFTLNIHPVEEEDTATYYCQHSWEIPYTFGGGTKLEIK
notes: Mouse monoclonal purified from the hybridoma; also called murine 2EF
[5]
  binding result: binds

B7: humanized Hu2G10-6 antibody (Hu2G10 VH2 and VL3, IgG1/kappa) (antibody, V domains shown)
VH: QVQLVQSGAEVKKPGASVKVSCKASGFTFSSSYISWLRQAPGQRLEWIAWIYAGTGGTSYNQKFTGRVTLTVDTSASTAYMELSSLRSEDTAVYYCARHNPRYYAMDYWGQGTTVTVSS
VL: DTQMTQSPSSLSASVGDRVTITCITSTDIDDDMNWYQQKPGKAPKLLISEGNTLRPGVPSRFSGSGYGTDFTFTISSLQPEDIATYYCLQSDNLPYTFGGGTKVEIKR
[6]
  binding result: binds

B8: humanized Hu2G10-5 antibody (Hu2G10 VH1 and VL3, IgG1/kappa) (antibody, V domains shown)
VH: QVQLVQSGAEVKKPGASVKVSCKASGFTFSSSYISWLRQAPGQRLEWIAWIYAGTGGTSYNQKFTGKATLTVDTSASTAYMELSSLRSEDTAVYYCARHNPRYYAMDYWGQGTTVTVSS
VL: DTQMTQSPSSLSASVGDRVTITCITSTDIDDDMNWYQQKPGKAPKLLISEGNTLRPGVPSRFSGSGYGTDFTFTISSLQPEDIATYYCLQSDNLPYTFGGGTKVEIKR
[1]
  EC50 of ADCC reporter bioassay (luciferase luminescence; Jurkat effector cells with V158 FcgammaRIIIa and NFAT-luciferase; MCF7 target cells): 4.15 µg/mL
